Reference: the domain aggregation screens of Martell et al. (2025)

Test: soluble fraction after stress (log2 fold change); higher = more stays soluble; pooled small domains, quantitative proteomics
Conditions: stress: 50 degC
Procedure, shortened: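 The stress applied to every library was 50°C. These custom libraries of small protein domains were pooled and measured at high throughput with quantitative proteomics as the read-out. Aggregation propensity is expressed as the base-two logarithm of the fold change in how much of each protein remains soluble. The higher the value, the more of that protein stays in solution.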

Sequence | soluble fraction (log2)
HMAPASADQLIDQLNEKVKAKDDKGVAALLTAAQTKMAELAQKDPKEAQAYVAKLQQWMQSNSENIKAALK | 0.157
HMAPAYELTEEETKIIEILKANENIDLNELKSQAALSGKKWDKSMKNLAKYNLTKVTVDGDAKTVAYLA | 0.0932
HMAPELSGEKLWDAQDVAMFLRVKPTTVWSYVSRDGFPAPVSQAGRAGMWSEPLVVQWYLSRPG | -0.223
HMAPEPFILSVDADGKYYIDDLEKTKQEILIYATALYQEKPTTDFLVRGDKSAAYNDVLQAMVVLKE | -0.0406
HMAPETALQILEQIQINPKVTMTDLANLTGYSRRWVAQTMKQLQELNVIKRVGSTKTGYWEIIA | -0.138
HMAPGSKAEIPEDLMKVINKDPKMKAFVATLNKANIMAISFRLSTAKKPETRERRFNLILETLKRGEKF | -3.18
HMAPKVTLNETETAIFEKMQQEKQLLLSELRTHFDISNKLWDTSIKTLTKNQLLTVSKEADLLWIKL | -0.658
HMAPLAVIFPEPWRGMIAPEKLEGLTQALSLNPRPGYQHDPTRRYGVSLDGLDVRFTIDGDTLTVVEVVT | -0.635
HMAPNKLQQQEVWTKALPLLQQMIMTIRQIDAAGGDSSPERELLEETAARFDETLDVERFLP | -0.308
HMAPPPLAGAREALREQIRRGSLSARRGFDAYADALGLPAGTRGAHPIFAALQRLDYPQALRLLDQEPT | 0.0894
HMAPQVKIPNLVDVSQRQAEAILNSYGLKVGHLIYKPDLAKDAVLGFMFNGRSLKAGDELAKGSSIDLILG | -0.097
HMAPRDKADKYVAAGIAEELVPILQKVGYYLVTDLKDVKAQKIQQQIGEIIKKYKLDIEKPSVQDIEGWN | 0.0612
HMAQDIEQLEKAVSFYTRMDPAAAALSITNLDQKTAVNILMRMKDKQASAVLESMTAERSSELIDSIARK | 0.00388
HMAQELPYEKVTMNGKMFYVYHVKAGEGLYLISRTFSVNADEILKFNPSIENGLKSGQVLYIPIK | -0.0691
HMAQISDESALYDLVKSVLDANPQSIADYKAGRDRALGFLMGQAMKLSKGKANPPVINKILKEMLDK | 0.0791
HMAQKQLYIAGTDYTKNSTSQLVLAYFPAKPSSIKIFFDGIYQNKDKWSLFGKTIIFGLPISSNAVEVHYE | -2.1
HMAQLPADLSKVKSSQISDQQLTQIAQQAKNSGQSEQAVLQELKQRGLPDTEIQALGARISGLMQ | 0.137
HMAQLVVTVDKLNKRTAIPVTLSDKSSNDSVVEKGFRFEGFPFVNTATNGKKWYKDREGFFYWAGGLMEEA | 0.0125
HMAQMDDPEMVLHIYNKMIQQRLFDTAVGYSYLKDLQEYLQSIPFIRKEDIFPIPVQHPQVEESLRKAK | -0.367
HMAQTSAELIIEYLKRNDGFMELTDKSPADEIYETFGISKKNFKMAVGSLYKNRVIEIGQNGIRLVE | -0.216
HMAQTTKWREIHKVKRKETIFGIARDNGLTVDELIEANPEMTKPGYELKKGDFIYIPFPSKNIDTNAGTQT | -0.157
HMARAESYGDIARLEQLLDEHANIAALDPGKLPAVRQQIWTLMRAARMDHDLGLAERPEDDSFDDMLLHV | 0.133
HMARAPIYPDGLTQREVEVLSLVAAGKTDREIAEELFIALRTVTTHVGNILNKIGAANRTEAAGYATRQGL | -0.459
HMARAVSPLEAIPGVGPRRRQQLLKQLGGMQEVARAGVEDLSRVPGISRALAQQIYDAFHGD | -0.149
HMARDPWDVLGVAKTATNDEIKRAFKRQAMMTHPDKQGGSEERFKEVNEAYSHIKDEQSRAKYQNSQ | 0.238
HMARDSYNGVQRTISTLLGQGNYDRAYDVAVGARGQMSKQQWSDVAKRIYEVSGIKIDDSVKY | 0.159
HMARRSRADAVRNREALIDAAKAAFTEAGPDVSLEEIARRAGVGIGTLYRHFPTRDAVIEAVYR | 0.0559
HMARRTPPPTVSELNALLRVAAPHIQRVILLGIYTGARIGPSELFSLKWDDVDLTRGVIGIRL | -0.0306

Sequence | soluble fraction (log2)
HMARTDVKLREVAQELLRMGLLEESLRPHLYRTALASMERLNATLEPLDLIARADEIRGLVFLAVRH | -2.44
HMARVSGIDLPKNKRGYIGLTYIYGIGRSTALHILNSAGVDPEKKVHEWNDDETTAIRNIINAEIKVEGAL | -0.645
HMASAKTVAQSGTYKFAKTTAIKSSASDAASTVGTYYKGNTVNYNAKVTTNGQTWLRYTSYSGAQYYVKVS | -3.18
HMASANMPDVLGLDAETAKQVLAAKGFTKVEIYPMESSEPANRVVRQSEDRDTMVALTKEILLGVSNGS | 0.186
HMASENISYSQFINQVKNSMVESVSIEADGKTISGKYKSGSSFVTYGLNDPKLVDDLLSNNVEIL | 0.159
HMASGLITEEQAKSKALAHAGLSASQVNFIWVKQDWEDGRRVYEVEFYTDDYQEYDYEIDARTGEILSFDY | -1.97
HMASIGTATVTADNLRLRSEAGTGAETLTMAPKGAEVTVEEDAGDGWYKVTYGDTEGYMSGEWLKITLA | -0.209
HMASLIGEEKALQIALEHAGVALENVAYSQVKLENDDGRWEYDTEFYSGSKEYDYEIDASTGEILGYDHD | -0.0337
HMASLSITVNGETRRAAPGSIADLVRAIGLDPAKVAVERNGEIAPRSTLADVALADGDVLEIVHFVG | -0.0709
HMASMEDILAEAKTKFQEGDLFKSVNEGIQGTHKLTLPLRIKESRIVDASGAAVYREGIWATVDK | 0.108
HMASMNPVWLEFPNIPWGSAGWRMGWGEDYMRRWAKWYISLAEVERQSYKSDWPEPQEWEGFYAFMEHGT | -1.63
HMASPEIAFLNKFYQLSNTVNEISVMKIVKNYQEKYQQRISIEQMAKTLKTMGYAVRNNIISNIEEAPV | -1.3
HMASPRVWKDASSGRTLTGEFVELTKDAVKVRRANGDVVSLPLSRLTEEDITFAKGASETGGA | 0.146
HMASVLTAKLSEREVDVLNLLARGFTNADIAAQLHLSEGTVRNHVSTIFAKLDVNDRTQAAVIAIRHGL | -0.775
HMASVLTGMLGRVTGELAPKGIVMVGNETWTAVSEDDSVIRIGEPVEVRSVEGLILTVFRRID | -2.53
HMATAADLLQSATGVPRSDALLLLAKLLGVAKERLIAHPETVVSEKTQATFSDWIERVRGGFPTTYLLG | -0.0115
HMATAEETTPLWARNRLSHAIFGPGSVTGEDERSFEVAFDNGDTLNFSKKSAHLYFTAMSSR | -0.0942
HMATARPPPPPESRVEVLFDGRWYAGTVVGGALDEHRATVFFDADRLSQVINFAETGIRVLGT | -0.0673
HMATEYIIPTVTNKKLEEAIGIAQLRGFEISVDEYKPSDIDEGTVLEQSPAAGTNAKQGDTISVTVSSG | 0.294
HMATFTPYLVRITASVLNIRKGPGTTYAVTGQIKDRGVYTIVEQKGNWGRLKSGAGWISLSYTKK | -3.12
HMATPAFEMYKVRRGDTPAGLAKEWGFPDMASFYRINPDARSDWKRGLQLVKPMNEMAVLQATA | -0.255
HMATPKYMELVRWINEQIESKNLVPGQKMYSENTLKEMFGVSRQTVRHAIGVLENEGVIRRIQGSGTYIN | -0.829
HMATPSTGQVSVVRLNLRVSPSISSPVVTRLTQGDTVKILAASDDGRWYKVATADGRTGWLYTIYITAE | -0.37
HMATQTGTVKWFNEGKGFGFIAPDDGSKDLFAHFSEIKTTGFKTLAEAQRVEFEVTEGRKGLQASNIK | 0.0521
HMATRLPFGFAKRFGVLVEGKDDQITVYHKDGLQTAVILEIQRYLARPFRFEAVTPEEFERRLGLAYQS | -0.808
HMATSNDTQITGSLALRFDGSGDTFTVNVNGDDKLEINTEGTVIYKPLTTAPTYVSGGLFFSSSGDFYVG | -0.0386
HMATTIDFTVGDDVQVMNGPLESFTGKVTELNEASQKVKVDVVMFGRVTNVELDFVQVKKIT | 0.162
